The values below come from patent US6077682.

The target of this experiment is EnvZ(C)(223-289) (Escherichia coli).

EnvZ(C)(290-450) (enzyme) returned a trans-autophosphorylation of sub-domain A with [gamma-32P]ATP, autoradiography of 5%.
